Key:
[1] = target: NDV Ulster HN ectodomain (residues 49-616) (Newcastle disease virus (NDV), strain Ulster); assay: SDS-PAGE under non-reducing conditions
[2] = target: NDV Ulster HN ectodomain (residues 49-616) (Newcastle disease virus (NDV), strain Ulster); assay: not stated; ectodomain in solution; method not given
[3] = target: NDV Ulster HN NA domain (residues 124-616), containing the C-terminal extension (Newcastle disease virus (NDV), strain Ulster); assay: SEC
[4] = target: NDV Ulster HN NA domain (residues 124-616), containing the C-terminal extension (Newcastle disease virus (NDV), strain Ulster); assay: negative-stain electron microscopy
[5] = target: NDV Ulster HN NA domain (residues 124-616), containing the C-terminal extension (Newcastle disease virus (NDV), strain Ulster); assay: SDS-PAGE under non-reducing conditions
[6] = target: NDV Ulster HN NA domain (residues 124-616), containing the C-terminal extension (Newcastle disease virus (NDV), strain Ulster); assay: sucrose density gradient sedimentation

Measured: stoichiometry N

NDV Ulster HN ectodomain (residues 49-616) (domain or fragment)
2: [1] | [2]

NDV Ulster HN NA domain (residues 124-616), containing the C-terminal extension (domain or fragment)
2: [3] | [4] | [5] | [6]
